Holding throughout (settings): both partners purified
For experiment [1], the target named is T1, S65-phosphorylated ubiquitin (human, UniProt P0CG48 1-76, phosphoserine at 65).
T1 construct: ubiquitin, human; the cut product of the ubiquitin precursor; phosphorylated at S65 by PINK1; One chemical species that exchanges slowly between two conformations, pUbRL and pUbRT; The printed KD, kon and koff are defined for the pUbRL state; 15N-labelled or unlabelled, depending on the experiment; also called pUb; pUbRL (C-terminally relaxed conformation); source: E. coli BL21 star, purified; …
The experiment in a line: NMR titration; 1H-15N HSQC; 100 uM 15N-labeled Ub or pUb titrated with unlabeled UBA (22.7 to 340.4 uM); 20 mM HEPES, 150 mM NaCl, pH 7.4, 25 C; CSPs of pUb fitted with the revised model of coupled pUbRL/pUbRT equilibria (KD is for pUbRL), CSPs of Ub with a simple one-site model.

The target of experiment [2] is T2, Human ubiquitin (unmodified) (human, UniProt P0CG48 1-76).
T2 construct: ubiquitin, human; the cut product of the ubiquitin precursor; cloned into pET11a; 15N-labelled in the NMR titrations; also called unmodified Ub; source: E. coli BL21 star, purified (Sepharose SP, Sephacryl S100)
Described as above.

The target of experiment [3] is T1, S65-phosphorylated ubiquitin. The experiment is described as follows: NMR CPMG relaxation dispersion; 15N-labeled Ubqln2-UBA 300 uM with 32 uM unlabeled pUb (~10% saturation); 20 mM HEPES, 150 mM NaCl, pH 7.4; two magnetic fields, global fit; kon and koff calculated from kex and the KD.
Experiment [4] has the same target. The experiment is described as follows: NMR CPMG relaxation dispersion; 15N-labeled Ubqln2-UBA 300 uM with 228 uM unlabeled pUb (~50% saturation); 20 mM HEPES, 150 mM NaCl, pH 7.4; two magnetic fields, global fit; kon and koff calculated from kex and the KD.

B1: Human Ubqln2-UBA (residues 578 to 621) (domain or fragment, UniProt Q9UHD9 578-621, looked up)
chain: PEVRFQQQLEQLNAMGFLNREANLQALIATGGDINAAIERLLGS
notes: Ubiquilin-2 (Ubqln2), human, UBA domain, residues 578 to 621; synthetic gene with optimized codons in pET11a; 15N- or 15N/13C-labelled in some experiments; also called UBA domain from Ubqln2; Ubiqulin-2 UBA; source: E. coli BL21 (DE3), purified (Ni-NTA, Sephacryl S100; TEV cleavage, second Ni-NTA, Sephacryl S100); not shown: thioredoxin, N-terminal, cleaved; His6, N-terminal, cleaved
Consider B1, for which the figures for the dissociation constant Kd in experiment [1] and in experiment [2] were 43.3 ± 3.6 µM and 33 ± 3.7 µM, respectively. The koff (in general, the rate constant with which the complex falls apart) in experiment [3] is 293 ± 27.5 s⁻¹; in experiment [4] it was 678 ± 61 s⁻¹. The kon – broadly, the second-order rate constant of association – in experiment [3] is 6.8e+06 ± 600000 M⁻¹ s⁻¹; in experiment [4], 1.56e+07 ± 1.4e+06 M⁻¹ s⁻¹.

B2: Human Rad23A-UBA2 (residues 315 to 363) (domain or fragment)
chain: not shown
notes: UV excision repair protein Rad23A, human, second UBA domain (UBA2), residues 315 to 363; synthetic gene with optimized codons in pET11a; 15N-labelled in the CPMG experiment; also called Rad23-UBA2; second UBA domain (UBA2) from Rad23A; source: E. coli BL21 (DE3), purified (Ni-NTA, Sephacryl S100; TEV cleavage, second Ni-NTA, Sephacryl S100); not shown: thioredoxin, N-terminal, cleaved; His6, …
In the case of B2, the Kd (as a rule, the concentration at which binding is half-saturated) in experiment [1] stood at 404 ± 38.8 µM; in experiment [2], 356 ± 56 µM.
